One variant from publication PMC11809415, “Structure of the F-tractin–F-actin complex” (The Journal of Cell Biology, 2025) can be followed below.

Sequences and labels used below:
B1: F-tractinopt–mCherry fusion [rat] / F-actin (rabbit skeletal muscle α-actin filaments) [rabbit] (parent)
chain 1: APRRSVGELRLLFEARAASAA
chain 2: not shown

Variants of B1 are the subject of this experiment. Kind of experiment: high-speed cosedimentation assay (SDS-PAGE densitometry). To be noted: with F-actin (rabbit skeletal muscle α-actin filaments) [rabbit]; 2 µM F-tractin-mCherry; high-speed sedimentation, 120,000 g; actin 0-40 µM.
For chain 1 F13A, the Kd (in general, the concentration at which binding is half-saturated) is above 100 µM.
